{
  "source": "patent US20170051285A1",
  "about": "“COMPOSITIONS AND METHODS OF USING SAME FOR REDUCING RESISTANCE TO MOSQUITO LARVICIDES” (priority 2014, published 2017)",
  "system": "Ae. aegypti adult females, RJ strain",
  "test": "dsRNA treatment of larvae followed by pyrethroid (deltamethrin) adulticide bottle bioassay",
  "type": "in vivo, Aedes aegypti",
  "conditions": "soaking 0.1 μg/μL 24 hours plus 4 feedings with food-containing dsRNA, deltamethrin 0.5 μg/bottle",
  "method": "Third instar larvae were treated (in groups of 100 larvae) in a final volume of 3 mL of dsRNA solution in autoclaved water (0.5 μg/μL for sodium channel (AAEL008297), PgP (AAEL010379) and Ago3 (AAEL007823) dsRNA, or 0.1 μg/μL for CYP9J26 (JF924909.1). The control group was kept in 3 ml sterile water only. Larvae were soaked in the dsRNA solutions for 24 hr at 27° C., and then transferred into new containers (300 larvae/1500 mL of chlorine-free tap water), which were also maintained at 27° C., and were provided 6 mg/100 mL lab dog/cat diet (Purina Mills) suspended in water as a source of food on a daily basis. As pupae developed, they were transferred to individual vials to await eclosion and sex sorting. For bioassays purpose only females up to five days old were used. See FIG. 11 for detailed explanation of this experiment.\nAfter soaking in the dsRNA solutions for 24 hr at 27° C., the larvae were transferred into new containers (300 larvae/1500 mL of chlorine-free tap water), and were provided agarose cubes containing 300 μg of dsRNA once a day for a total of four days. The larvae were reared until adult stage. […]\nBottles were prepared following the Brogdon and McAllister (1998) protocol [Brogdon and McAllister (1998) Emerg Infect Dis 4:605-613]. […] At 15, 30 and 45 min intervals, the number of live and dead mosquitoes in each bottle was recorded. […]",
  "data": [
    {"molecule": "CYP9J26 dsRNA: dsRNA targeting Cytochrome p450 (CYP9J26) JF924909.1, SEQ ID NO: 203 (nucleic acid, double stranded RNA) CTTCAACGACTTCGTCCGATCAATTTACAACAAATATCCTGGAGTGAAGGTTTTCGGAATGTTCGAGACGATCACGCCGTTCTTCGTGATTCGCGATCCGGAGTTGATCAAGCAGATCGGCATCAAGGATTTCGATCACTTCGTTGACCACCGTCCGACGTTCGGACTGGACGATGAAACGGCGGAGCATCCGAAGGCGCTGTTCCGCAAGACGCTGTTCTCGATGACCGGTCAACGGTGGAAGGAGATGCGCGCTACGCTGAGTCCGGCTTTTACCGGCAGTAAGATGCGACAGATGTTCTCGCTGATGAGCGAATGCTGCGACGAAATGATGAAGCACTACCTGGACAAGGCGAAGGGCACGGGAAGGGTGGAAGTCGAAATGAAGGACTTGCTGAGTCGAATCACTATCAATGTGATTGCGTCGTGTGCTTTTGGAATCAAGGTGGAC", "values": [
      {"measurement": "susceptibility of adult mosquitoes to deltamethrin (FIG. 18)", "result": "more sensitive to deltamethrin during the first 15 minutes"},
      {"measurement": "susceptibility of adult mosquitoes to deltamethrin (FIG. 18)", "setting": "listed as CYP9J29 dsRNA", "result": "affects the susceptibility"}
    ]}
  ]
}
